Here are results for twelve variants from IntAct's records for PubMed 29892012.

B1: Abl interactor 2 (Homo sapiens), Q9NYB9 (parent)
chain: MAELQMLLEEEIPGGRRALFDSYTNLERVADYCENNYIQSADKQRALEETKAYTTQSLASVAYLINTLANNVLQMLDIQASQLRRMESSINHISQTVDIHKEKVARREIGILTTNKNTSRTHKIIAPANLERPVRYIRKPIDYTILDDIGHGVKWLLRFKVSTQNMKMGGLPRTTPPTQKPPSPPMSGKGTLGRHSPYRTLEPVRPPVVPNDYVPSPTRNMAPSQQSPVRTASVNQRNRTYSSSGSSGGSHPSSRSSSRENSGSGSVGVPIAVPTPSPPSVFPAPAGSAGTPPLPATSASAPAPLVPATVPSSTAPNAAAGGAPNLADGFTSPTPPVVSSTPPTGHPVQFYSMNRPASRHTPPTIGGSLPYRRPPSITSQTSLQNQMNGGPFYSQNPVSDTPPPPPPVEEPVFDESPPPPPPPEDYEEEEAAVVEYSDPYAEEDPPWAPRSYLEKVVAIYDYTKDKEDELSFQEGAIIYVIKKNDDGWYEGVMNGVTGLFPGNYVESIMHYSE
partner: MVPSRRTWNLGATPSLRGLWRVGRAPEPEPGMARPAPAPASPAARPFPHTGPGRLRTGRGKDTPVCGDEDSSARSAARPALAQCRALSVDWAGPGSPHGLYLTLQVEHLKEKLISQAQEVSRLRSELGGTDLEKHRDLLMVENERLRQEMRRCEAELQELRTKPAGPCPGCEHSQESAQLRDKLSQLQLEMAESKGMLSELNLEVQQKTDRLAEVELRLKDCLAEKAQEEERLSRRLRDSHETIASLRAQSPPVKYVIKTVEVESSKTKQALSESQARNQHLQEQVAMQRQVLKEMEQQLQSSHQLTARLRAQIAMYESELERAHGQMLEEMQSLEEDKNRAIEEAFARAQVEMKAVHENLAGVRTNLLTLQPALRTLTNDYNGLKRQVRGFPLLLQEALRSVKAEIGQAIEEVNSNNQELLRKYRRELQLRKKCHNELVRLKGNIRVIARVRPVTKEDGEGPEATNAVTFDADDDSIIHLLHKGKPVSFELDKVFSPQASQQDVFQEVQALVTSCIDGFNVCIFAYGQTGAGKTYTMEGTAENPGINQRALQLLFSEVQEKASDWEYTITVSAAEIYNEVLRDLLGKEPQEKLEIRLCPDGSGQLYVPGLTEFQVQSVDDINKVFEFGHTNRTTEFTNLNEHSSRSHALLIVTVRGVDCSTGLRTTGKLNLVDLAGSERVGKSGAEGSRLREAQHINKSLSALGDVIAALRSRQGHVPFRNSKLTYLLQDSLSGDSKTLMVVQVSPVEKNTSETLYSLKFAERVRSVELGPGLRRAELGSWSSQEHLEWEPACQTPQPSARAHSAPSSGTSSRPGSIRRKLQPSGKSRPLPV
B2: Abl interactor 2 (Homo sapiens), Q9NYB9 (parent)
chain: B1 chain
partner: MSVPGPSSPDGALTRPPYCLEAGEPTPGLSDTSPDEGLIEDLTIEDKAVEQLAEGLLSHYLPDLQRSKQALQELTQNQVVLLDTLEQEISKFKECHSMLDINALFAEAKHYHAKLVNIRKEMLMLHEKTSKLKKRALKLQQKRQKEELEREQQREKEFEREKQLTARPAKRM
B3: Zinc finger protein ZXDC (Homo sapiens), Q2QGD7 (parent)
chain: MDLPALLPAPTARGGQHGGGPGPLRRAPAPLGASPARRRLLLVRGPEDGGPGARPGEASGPSPPPAEDDSDGDSFLVLLEVPHGGAAAEAAGSQEAEPGSRVNLASRPEQGPSGPAAPPGPGVAPAGAVTISSQDLLVRLDRGVLALSAPPGPATAGAAAPRRAPQASGPSTPGYRCPEPQCALAFAKKHQLKVHLLTHGGGQGRRPFKCPLEGCGWAFTTSYKLKRHLQSHDKLRPFGCPVGGCGKKFTTVYNLKAHMKGHEQESLFKCEVCAERFPTHAKLSSHQRSHFEPERPYKCDFPGCEKTFITVSALFSHNRAHFREQELFSCSFPGCSKQYDKACRLKIHLRSHTGERPFICDSDSCGWTFTSMSKLLRHRRKHDDDRRFTCPVEGCGKSFTRAEHLKGHSITHLGTKPFECPVEGCCARFSARSSLYIHSKKHVQDVGAPKSRCPVSTCNRLFTSKHSMKAHMVRQHSRRQDLLPQLEAPSSLTPSSELSSPGQSELTNMDLAALFSDTPANASGSAGGSDEALNSGILTIDVTSVSSSLGGNLPANNSSLGPMEPLVLVAHSDIPPSLDSPLVLGTAATVLQQGSFSVDDVQTVSAGALGCLVALPMKNLSDDPLALTSNSNLAAHITTPTSSSTPRENASVPELLAPIKVEPDSPSRPGAVGQQEGSHGLPQSTLPSPAEQHGAQDTELSAGTGNFYLESGGSARTDYRAIQLAKEKKQRGAGSNAGASQSTQRKIKEGKMSPPHFHASQNSWLCGSLVVPSGGRPGPAPAAGVQCGAQGVQVQLVQDDPSGEGVLPSARGPATFLPFLTVDLPVYVLQEVLPSSGGPAGPEATQFPGSTINLQDLQ
B4: Abl interactor 2 (Homo sapiens), Q9NYB9 (parent)
chain: B1 chain
partner: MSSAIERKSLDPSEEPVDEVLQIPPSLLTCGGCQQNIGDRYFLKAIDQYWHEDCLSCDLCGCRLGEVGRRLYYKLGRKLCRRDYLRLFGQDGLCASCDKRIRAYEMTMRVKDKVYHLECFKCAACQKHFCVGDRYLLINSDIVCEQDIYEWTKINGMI
B5: Abl interactor 2 (Homo sapiens), Q9NYB9 (parent)
chain: B1 chain
partner: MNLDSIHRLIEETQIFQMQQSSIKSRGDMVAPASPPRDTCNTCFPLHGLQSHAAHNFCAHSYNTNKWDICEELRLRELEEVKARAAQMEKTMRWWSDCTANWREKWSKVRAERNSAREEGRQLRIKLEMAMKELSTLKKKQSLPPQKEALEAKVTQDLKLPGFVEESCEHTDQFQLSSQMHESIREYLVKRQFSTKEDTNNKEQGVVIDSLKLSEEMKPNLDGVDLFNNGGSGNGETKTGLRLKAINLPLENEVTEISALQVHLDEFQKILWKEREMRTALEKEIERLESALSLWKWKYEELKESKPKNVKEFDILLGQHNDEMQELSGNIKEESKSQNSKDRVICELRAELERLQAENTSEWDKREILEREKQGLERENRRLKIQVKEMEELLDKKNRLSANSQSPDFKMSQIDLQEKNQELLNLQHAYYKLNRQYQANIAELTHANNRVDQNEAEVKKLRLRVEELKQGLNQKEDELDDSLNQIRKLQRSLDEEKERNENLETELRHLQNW
B6: Angio-associated migratory cell protein (Homo sapiens), Q13685 (parent)
chain: MESESESGAAADTPPLETLSFHGDEEIIEVVELDPGPPDPDDLAQEMEDVDFEEEEEEEGNEEGWVLEPQEGVVGSMEGPDDSEVTFALHSASVFCVSLDPKTNTLAVTGGEDDKAFVWRLSDGELLFECAGHKDSVTCAGFSHDSTLVATGDMSGLLKVWQVDTKEEVWSFEAGDLEWMEWHPRAPVLLAGTADGNTWMWKVPNGDCKTFQGPNCPATCGRVLPDGKRAVVGYEDGTIRIWDLKQGSPIHVLKGTEGHQGPLTCVAANQDGSLILTGSVDCQAKLVSATTGKVVGVFRPETVASQPSLGEGEESESNSVESLGFCSVMPLAAVGYLDGTLAIYDLATQTLRHQCQHQSGIVQLLWEAGTAVVYTCSLDGIVRLWDARTGRLLTDYRGHTAEILDFALSKDASLVVTTSGDHKAKVFCVQRPDR
B7: Abl interactor 2 (Homo sapiens), Q9NYB9 (parent)
chain: B1 chain
partner: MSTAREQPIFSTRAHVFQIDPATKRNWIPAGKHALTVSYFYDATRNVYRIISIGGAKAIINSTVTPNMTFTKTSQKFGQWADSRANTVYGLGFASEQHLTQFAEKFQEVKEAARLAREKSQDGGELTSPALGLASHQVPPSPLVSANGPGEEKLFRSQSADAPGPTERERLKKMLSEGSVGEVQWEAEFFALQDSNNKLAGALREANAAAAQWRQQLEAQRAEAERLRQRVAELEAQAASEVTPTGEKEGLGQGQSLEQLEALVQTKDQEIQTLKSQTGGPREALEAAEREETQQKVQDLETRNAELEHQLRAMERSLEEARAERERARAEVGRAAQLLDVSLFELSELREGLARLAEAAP

Variants of B1 are the subject of one test. Particulars: with kifc3_human KIFC3, Q9BVG8.
E202K: the “effect of a mutation on the interaction” value is given as “with no effect”.

The next test covers variants of B1. The settings on record: with kifc3_human KIFC3, Q9BVG8. This is another data set of the same source.
For the variant R373C, the “effect of a mutation on the interaction” value is reported as “disrupting interaction strength”.

In the next test the parent is B2. The settings on record: with bl1s6_human BLOC1S6, Q9UL45.
As for R373C, the “effect of a mutation on the interaction” value was “with no effect”.

In a further test the parent is B2. The settings on record: with bl1s6_human BLOC1S6, Q9UL45. This is another data set of the same source.
As for E202K, the “effect of a mutation on the interaction” value is on record as “with no effect”.

The variants in another test derive from B3. Particulars: with wdr5_human WDR5, P61964.
As to T589M, the “effect of a mutation on the interaction” value is reported as “with no effect”.

In a further test the parent is B4. The settings on record: with rbtn2_human LMO2, P25791.
E202K: the “effect of a mutation on the interaction” value is listed as “with no effect”.

The variants in the next test derive from B4. Particulars: with rbtn2_human LMO2, P25791. The source holds these as a separate data set.
As for R373C, the “effect of a mutation on the interaction” value was “with no effect”.

Variants of B5 are the subject of another test. The settings on record: with CCDC102B.
Take E202K: the “effect of a mutation on the interaction” value is “with no effect”.

Variants of B5 are the subject of the next test. Particulars: with CCDC102B. The source holds these as a separate data set.
On to R373C, for which the “effect of a mutation on the interaction” value was “with no effect”.

A further test covers variants of B6. The settings on record: with bhe40_human BHLHE40, O14503.
bhe40_human BHLHE40, O14503, sequence (O14503 whole entry): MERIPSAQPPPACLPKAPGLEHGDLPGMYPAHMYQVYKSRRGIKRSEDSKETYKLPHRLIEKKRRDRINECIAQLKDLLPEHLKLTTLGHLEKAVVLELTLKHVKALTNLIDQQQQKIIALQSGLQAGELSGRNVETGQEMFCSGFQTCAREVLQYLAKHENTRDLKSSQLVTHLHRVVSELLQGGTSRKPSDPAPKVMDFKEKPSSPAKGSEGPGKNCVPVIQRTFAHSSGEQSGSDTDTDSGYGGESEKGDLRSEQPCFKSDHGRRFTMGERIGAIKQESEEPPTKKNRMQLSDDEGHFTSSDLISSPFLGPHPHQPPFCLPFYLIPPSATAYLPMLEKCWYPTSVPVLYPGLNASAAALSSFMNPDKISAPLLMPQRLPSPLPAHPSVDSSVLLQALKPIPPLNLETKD
Take I343F: the “effect of a mutation on the interaction” value was “with no effect”.

The variants in a further test derive from B7. Particulars: with home3_human HOMER3, Q9NSC5.
For E202K, the “effect of a mutation on the interaction” value is “with no effect”.

Another test covers variants of B7. Particulars: with home3_human HOMER3, Q9NSC5. The source holds these as a separate data set.
With R373C, the “effect of a mutation on the interaction” value was “with no effect”.
